Reference: the RNAGym collection of RNA variant scans (doi:10.1101/gr.219683.116)

B1: mRNA-splicing (parent)
chain: AGUUGCUGCUGGGAGCUCCAGCACAGUGAAAUGGACAGAAGGGCAGAGCAA

Variants of: B1
Assay: exon inclusion enrichment index; higher = more inclusion; WT1 exon 5 minigene, HEK293

Row | Variant | exon inclusion enrichment index
1 | G5C C6U G8C C9U U10C C16A U17G | 1.15
2 | G5C C6U G8C C9U U10C C16A U17A | 1.38
3 | G5C C6U G8C C9U U10C C16A U17C | 1.6
4 | G5C C6U G8C C9U U10C A40C | 2.94
5 | G5C C6U G8C C9U U10C A40U | 1.67
6 | G5C C6U G8C C9U U10C A40G | 1.61
7 | G5C C6U G8C C9U U10C C22U | 1.44
8 | G5C C6U G8C C9U U10C C22A | 1.57
9 | G5C C6U G8C C9U U10C C22G | 2.51
10 | G5C C6U G8C C9U U10C A39C | 0.436
11 | G5C C6U G8C C9U U10C A39U | 0.0783
12 | G5C C6U G8C C9U U10C A39G | 0.96
13 | G5C C6U G8C C9U U10C A37G G38U | 0.627
14 | G5C C6U G8C C9U U10C A37G G38A | 1.79
15 | G5C C6U G8C C9U U10C A37G G38C | 2.08
16 | G5C C6U G8C C9U U10C G21U C22A | 0.661
17 | G5C C6U G8C C9U U10C G21U C22U | 0.512
18 | G5C C6U G8C C9U U10C G21U C22G | 1.74
19 | G5C C6U G8C C9U U10C G28U A29U | 0.419
20 | G5C C6U G8C C9U U10C G28U A29C | 1.48
21 | G5C C6U G8C C9U U10C G28U A29G | 1.84
22 | G5C C6U G8C C9U U10C G33C G34C | 1.12
23 | G5C C6U G8C C9U U10C G33C G34U | 1.29
24 | G5C C6U G8C C9U U10C G33C G34A | 1.24

Row | Variant | exon inclusion enrichment index
25 | G5C C6U G8C C9U U10C C22G A23U | 0.248
26 | G5C C6U G8C C9U U10C C22G A23G | 0.846
27 | G5C C6U G8C C9U U10C C22G A23C | 0.747
28 | G5C C6U G8C C9U U10C G13A A14U | 2.38
29 | G5C C6U G8C C9U U10C G13A A14G | 2.03
30 | G5C C6U G8C C9U U10C G13A A14C | 2.59
31 | G5C C6U G8C C9U U10C G26A U27G | 2.81
32 | G5C C6U G8C C9U U10C G26A U27A | 1.96
33 | G5C C6U G8C C9U U10C G26A U27C | 3.55
34 | G5C C6U G8C C9U U10C G15A C16G | 1.28
35 | G5C C6U G8C C9U U10C G15A C16U | 1.27
36 | G5C C6U G8C C9U U10C G15A C16A | 1.24
37 | G5C C6U G8C C9U U10C C18A | 1.39
38 | G5C C6U G8C C9U U10C C18U | 1.62
39 | G5C C6U G8C C9U U10C C18G | 2.21
40 | G5C C6U G8C C9U U10C G38A | 1.01
41 | G5C C6U G8C C9U U10C G38C | 1.28
42 | G5C C6U G8C C9U U10C G38U | 0.577
43 | G5C C6U G8C C9U U10C C24U A25U | 1.95
44 | G5C C6U G8C C9U U10C C24U A25C | 3.44
45 | G5C C6U G8C C9U U10C C24U A25G | 3.05
46 | G5C C6U G8C C9U U10C A40U G41U | 0.94
47 | G5C C6U G8C C9U U10C A40U G41A | 0.0602
48 | G5C C6U G8C C9U U10C A40U G41C | 2.71

Row | Variant | exon inclusion enrichment index
49 | G5C C6U G8C C9U U10C G33U G34U | 0.282
50 | G5C C6U G8C C9U U10C G33U G34C | 0.547
51 | G5C C6U G8C C9U U10C G33U G34A | 0.262
52 | G5C C6U G8C C9U U10C A47C G48U | 1.77
53 | G5C C6U G8C C9U U10C A47C G48A | 1.12
54 | G5C C6U G8C C9U U10C A47C G48C | 1.78
55 | G5C C6U G8C C9U U10C G42C G43A | 2.79
56 | G5C C6U G8C C9U U10C G42C G43C | 2.72
57 | G5C C6U G8C C9U U10C G42C G43U | 2.87
58 | G5C C6U G8C C9U U10C G33A G34C | 0.284
59 | G5C C6U G8C C9U U10C G33A G34A | 0.246
60 | G5C C6U G8C C9U U10C G33A G34U | 0.283
61 | G5C C6U G8C C9U U10C G21A C22U | 0.846
62 | G5C C6U G8C C9U U10C G21A C22G | 1.93
63 | G5C C6U G8C C9U U10C G21A C22A | 0.718
64 | G5C C6U G8C C9U U10C C18A C19A | 0.438
65 | G5C C6U G8C C9U U10C C18A C19G | 0.289
66 | G5C C6U G8C C9U U10C C18A C19U | 0.0905
67 | G5C C6U G8C C9U U10C G26C U27A | 2.14
68 | G5C C6U G8C C9U U10C G26C U27G | 3.22
69 | G5C C6U G8C C9U U10C G26C U27C | 3.12
70 | G5C C6U G8C C9U U10C C36G | 1.32
71 | G5C C6U G8C C9U U10C C36A | 1.44
72 | G5C C6U G8C C9U U10C C36U | 0.515

Row | Variant | exon inclusion enrichment index
73 | G5C C6U G8C C9U U10C A35C C36U | 0.258
74 | G5C C6U G8C C9U U10C A35C C36G | 1.57
75 | G5C C6U G8C C9U U10C A35C C36A | 1.37
76 | G5C C6U G8C C9U U10C G15U C16G | 1.44
77 | G5C C6U G8C C9U U10C G15U C16A | 1.38
78 | G5C C6U G8C C9U U10C G15U C16U | 1.32
79 | G5C C6U G8C C9U U10C G21A | 1.28
80 | G5C C6U G8C C9U U10C G21U | 1.22
81 | G5C C6U G8C C9U U10C G21C | 1.57
82 | G5C C6U G8C C9U U10C G33U | 0.658
83 | G5C C6U G8C C9U U10C G33A | 0.198
84 | G5C C6U G8C C9U U10C G33C | 2.15
85 | G5C C6U G8C C9U U10C A37C G38U | 1.2
86 | G5C C6U G8C C9U U10C A37C G38C | 1.95
87 | G5C C6U G8C C9U U10C A37C G38A | 1.63
88 | G5C C6U G8C C9U U10C G13U | 0.0883
89 | G5C C6U G8C C9U U10C G13C | 0.822
90 | G5C C6U G8C C9U U10C G13A | 2.18
91 | G5C C6U G8C C9U U10C G42U | 2.42
92 | G5C C6U G8C C9U U10C G42A | 3.34
93 | G5C C6U G8C C9U U10C G42C | 3.76
94 | G5C C6U G8C C9U U10C A30U A31G | 2.12
95 | G5C C6U G8C C9U U10C A30U A31C | 1.95
96 | G5C C6U G8C C9U U10C A30U A31U | 1.52

Row | Variant | exon inclusion enrichment index
97 | G5C C6U G8C C9U U10C A47U | 1.87
98 | G5C C6U G8C C9U U10C A47G | 0.327
99 | G5C C6U G8C C9U U10C A47C | 2.38
100 | G5C C6U G8C C9U U10C G42U G43C | 1.23
101 | G5C C6U G8C C9U U10C G42U G43A | 3.34
102 | G5C C6U G8C C9U U10C G42U G43U | 2.81
103 | G5C C6U G8C C9U U10C G26U U27G | 2.97
104 | G5C C6U G8C C9U U10C G26U U27A | 0.886
105 | G5C C6U G8C C9U U10C G26U U27C | 3.41
106 | G5C C6U G8C C9U U10C G12A G13U | 0.128
107 | G5C C6U G8C C9U U10C G12A G13A | 0.681
108 | G5C C6U G8C C9U U10C G12A G13C | 0.692
109 | G5C C6U G8C C9U U10C G41C | 3.06
110 | G5C C6U G8C C9U U10C G41A | 1.33
111 | G5C C6U G8C C9U U10C G41U | 2.03
112 | G5C C6U G8C C9U U10C C22U A23U | 1.09
113 | G5C C6U G8C C9U U10C C22U A23G | 2.04
114 | G5C C6U G8C C9U U10C C22U A23C | 1.22
115 | G5C C6U G8C C9U U10C G28C A29U | 1.13
116 | G5C C6U G8C C9U U10C G28C A29C | 1.58
117 | G5C C6U G8C C9U U10C G28C A29G | 2.82
118 | G5C C6U G8C C9U U10C C19G | 1.61
119 | G5C C6U G8C C9U U10C C19A | 0.881
120 | G5C C6U G8C C9U U10C C19U | 0.105

Row | Variant | exon inclusion enrichment index
121 | G5C C6U G8C C9U U10C G11A G12U | 0.314
122 | G5C C6U G8C C9U U10C G11A G12A | 0.685
123 | G5C C6U G8C C9U U10C G11A G12C | 0.41
124 | G5C C6U G8C C9U U10C C36U A37U | 1.12
125 | G5C C6U G8C C9U U10C C36U A37G | 1.74
126 | G5C C6U G8C C9U U10C C36U A37C | 1.55
127 | G5C C6U G8C C9U U10C A31C | 2.29
128 | G5C C6U G8C C9U U10C A31G | 2.47
129 | G5C C6U G8C C9U U10C A31U | 1.74
130 | G5C C6U G8C C9U U10C G12U | 1.11
131 | G5C C6U G8C C9U U10C G12C | 1.51
132 | G5C C6U G8C C9U U10C G12A | 0.889
133 | G5C C6U G8C C9U U10C A31G U32C | 3.89
134 | G5C C6U G8C C9U U10C A31G U32G | 1.04
135 | G5C C6U G8C C9U U10C A31G U32A | 3.83
136 | G5C C6U G8C C9U U10C A37G | 2.83
137 | G5C C6U G8C C9U U10C A37C | 3.08
138 | G5C C6U G8C C9U U10C A37U | 1.73
139 | G5C C6U G8C C9U U10C C36G A37C | 0.671
140 | G5C C6U G8C C9U U10C C36G A37G | 0.3
141 | G5C C6U G8C C9U U10C C36G A37U | 0.948
142 | G5C C6U G8C C9U U10C A35U C36U | 0.0294
143 | G5C C6U G8C C9U U10C A35U C36A | 0.00287
144 | G5C C6U G8C C9U U10C A35U C36G | 0.181

Row | Variant | exon inclusion enrichment index
145 | G5C C6U G8C C9U U10C A45U G46A | 1.39
146 | G5C C6U G8C C9U U10C A45U G46C | 1.3
147 | G5C C6U G8C C9U U10C A45U G46U | 0.648
148 | G5C C6U G8C C9U U10C A31C U32A | 1.46
149 | G5C C6U G8C C9U U10C A31C U32G | 2.49
150 | G5C C6U G8C C9U U10C A31C U32C | 3.49
151 | G5C C6U G8C C9U U10C G12C G13C | 0.312
152 | G5C C6U G8C C9U U10C G12C G13U | 0.036
153 | G5C C6U G8C C9U U10C G12C G13A | 0.931
154 | G5C C6U G8C C9U U10C C44G | 2.79
155 | G5C C6U G8C C9U U10C C44U | 0.527
156 | G5C C6U G8C C9U U10C C44A | 3.29
157 | G5C C6U G8C C9U U10C A39U A40U | 0.67
158 | G5C C6U G8C C9U U10C A39U A40G | 0.572
159 | G5C C6U G8C C9U U10C A39U A40C | 2.16
160 | G5C C6U G8C C9U U10C G28U | 0.486
161 | G5C C6U G8C C9U U10C G28C | 1.55
162 | G5C C6U G8C C9U U10C G28A | 0.598
163 | G5C C6U G8C C9U U10C C22A A23U | 1.31
164 | G5C C6U G8C C9U U10C C22A A23G | 2.07
165 | G5C C6U G8C C9U U10C C22A A23C | 2.99
166 | G5C C6U G8C C9U U10C C19G A20G | 1.04
167 | G5C C6U G8C C9U U10C C19G A20C | 1.8
